Assay [1] addresses RNA polymerase II holoenzyme (yeast).
Assay [2] concerns the target mammalian RNA polymerase II holoenzyme (calf thymus).
Assay [3] concerns the target RNA polymerase II (calf thymus) (bovine (calf thymus)). In words: cofractionation during purification from calf thymus, Western blot. For orientation: A western blot detects proteins with antibodies after separation by electrophoresis.

The record followed here is patent publication US5919666.

Take GAL4-VP16 (from UniProt P04386): in assay [1], the in vitro transcription from a template with a GAL4 site, reconstituted with holoenzyme, factor a and TBP was 5 fold. This substance yielded an in vitro transcription from the adenovirus major late promoter with 3 Gal4 binding sites, with coactivators HMG-2 or PC4 in assay [2] of 5 fold. On to bovine SRB7 (from UniProt Q2TBU8), for which the percent of the RNA polymerase II associated with SRB7 in assay [3] is > 20%.
